Experimental data taken from paper PMC6141588, “Electron microscopy of Chaetomium pom152 shows the assembly of ten-bead string” (Cell Discovery, 2018).

Molecular target: the molecule itself
Assay: cryo-EM micrographs of single particles; purified Ctpom152^FL, much of the detergent removed before rapid freezing; longer strings in up to an estimated 10% of over 2000 images

B1: full-length pom152 of Chaetomium thermophilum (Ctpom152^FL) (natural protein, UniProt G0SB44 1-1270, looked up)
chain: MSDAPAVGAFPQTPVAARRGPARPSDSTTSTTIKRTSPLPLAPQAGRQATNISPVIPLHILDAPTQRFYAFAFYLALTAWKLYDWTQVLEEDTESFLLFLKWIAIDCVFLFGLPELRIPWLELSQPFVMVAFAIHAMFDWILMFNIGFPWQSWVIGLLKVFYDREIAISEHNVKLSSILQNSSLIMGRQIINILPEGSAILNPELQPFCLGGDRKTANIPIFFNSTIPVEVELIRTDFETGQQESIKLSKSQLRDIERRAKRESQDGDTVQSIVQFDFPVKKTGAYRLGRVLDEYKLEVQRRNPLTFVVSCPKAWVGPALSAHRCVGDLSDLSMMVEGTPPLKIKYSRMINGKDHSFHFQSLQPEGFVSPLSGLRSNNWGYDEDDISWARAQKVPVGLNESMHSSGDWQYSIDEVQDGFGNIIKYDSLADDPDGKPKPKHLTQSFVVKKRPVIRLEGCDLRHPLKVAKGKSKNLPVSYGLSGGSREDSTYQIAWQFSPIDTLTESGDHGDVVTIGTYTAKNNRDRPTISAPGLYTLKSVSASQCEGEIQEPSSCLLLNPLEPRLSLRHEEIPDTCAGNSIGLRVDLDLIGTPPFIVRYDVISNGERRSERVSIPGLRYQLDLVPRIAGHHKYIFTHVGDSIYDGQKLSGPEYVLEQDVKPAAAALIQHSTGKMSSCLGDQVTVDILLLGDPPFTLEWELIHDGKRKQFKVPNIQENSYQIKTAPLTTGGEYTLGLTSVQDKRGCRNFLQEELKISVRRQSPRAAFGQVDGKRKILAVEGSSVKLPLRLTGEGPWKVYYANLHDGSPDKPKVQEKIIKSDNGFLEVRGRGAFAITDVWDSQCHGVVDPKASRFDVDWFPRPELSVALTHGVSKTETGFQLQDVCEGDVSGFEVALKGTPPFTVEYEVRHHPLQGSSSLSKKKIEGVVGKEAIQADTSKAGTYTYKFTALEDDLYSSNRGFQPIIVKQNVNRKPTASFVKPGQTFKYCKSEQDNEDGIPITLTGVPPFFLEVEIKHQSAAVPEIYRTPAIDSHSYELKIPRHHLRLGTQHIRIRDIRDGSGCHSTSGILSGPSVQVQLFEAPTIYPLETRTDYCVGERISYTLSGQAPFEVWYTFNGVELKAKSPNTNFRRIAESPGEFTITSVSDKASECRAPVSITKTIHPLPAVRISKGKSVRVDIHEGGEVDILFEFFGTPPFEFTYTRSTNARKGQKSQVLETRHDISHEHSKVIKASQEGTYEVVAIKDKYCSFSTQAVVGLEGGKKDKTKKLKVY
notes: also called FL Ctpom152; full-length Ctpom152; source: insect cells, purified with detergent extract; much of the detergent removed before cryo-EM
binding result: binds
